We go through four compounds from patent US20120121591A1 (priority 2009, published 2012).

As a reminder, the % Inhibition is the change of the read-out against control, counted positive when it falls. Usually Cmax stands for the peak of the concentration-time curve. The Tmax is the time at which the peak concentration occurs.

The target in data set [1] is NMDA (Cerep target) (human).
Data set [2] concerns the target Glycine (Strychnine insensitive) (Cerep target) (human).
The target in data set [3] is NMDA (Cerep target) (human). In words: Cerep safety pharmacology binding assay.
The target in data set [4] is Glycine (Strychnine insensitive) (Cerep target) (human). Kind of data set: Cerep safety pharmacology binding assay.
Data set [5] addresses T1, hKv1.7 (Homo sapiens, UniProt Q96RP8). Kind of data set: cell-based or functional assay.
The target of data set [6] is T2, human Kv1.3 (Homo sapiens, UniProt P22001). In words: cell-based or functional assay.
T2 sequence (P22001 whole entry): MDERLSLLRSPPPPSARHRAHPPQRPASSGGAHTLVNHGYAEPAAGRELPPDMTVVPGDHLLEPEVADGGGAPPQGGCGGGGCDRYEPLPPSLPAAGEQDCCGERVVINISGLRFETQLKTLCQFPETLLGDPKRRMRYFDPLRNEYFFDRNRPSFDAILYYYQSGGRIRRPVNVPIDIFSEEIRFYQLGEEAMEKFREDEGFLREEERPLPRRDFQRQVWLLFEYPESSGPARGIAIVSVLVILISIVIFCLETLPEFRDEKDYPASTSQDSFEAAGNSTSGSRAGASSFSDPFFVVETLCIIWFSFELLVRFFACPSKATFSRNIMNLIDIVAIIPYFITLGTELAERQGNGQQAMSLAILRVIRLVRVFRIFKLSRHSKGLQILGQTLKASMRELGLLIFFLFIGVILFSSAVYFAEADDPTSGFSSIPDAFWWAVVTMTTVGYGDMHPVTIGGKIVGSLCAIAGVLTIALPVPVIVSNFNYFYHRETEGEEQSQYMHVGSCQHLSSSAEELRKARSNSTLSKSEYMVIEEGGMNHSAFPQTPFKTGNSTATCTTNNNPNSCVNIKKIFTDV
Another data set concerns the target human Kv1.1 (Homo sapiens, UniProt Q09470). Kind of data set: cell-based or functional assay.
The target in data set [7] is T3, hKv1.2 (Homo sapiens, UniProt P16389). In words: cell-based or functional assay.
T3 sequence (P16389 whole entry): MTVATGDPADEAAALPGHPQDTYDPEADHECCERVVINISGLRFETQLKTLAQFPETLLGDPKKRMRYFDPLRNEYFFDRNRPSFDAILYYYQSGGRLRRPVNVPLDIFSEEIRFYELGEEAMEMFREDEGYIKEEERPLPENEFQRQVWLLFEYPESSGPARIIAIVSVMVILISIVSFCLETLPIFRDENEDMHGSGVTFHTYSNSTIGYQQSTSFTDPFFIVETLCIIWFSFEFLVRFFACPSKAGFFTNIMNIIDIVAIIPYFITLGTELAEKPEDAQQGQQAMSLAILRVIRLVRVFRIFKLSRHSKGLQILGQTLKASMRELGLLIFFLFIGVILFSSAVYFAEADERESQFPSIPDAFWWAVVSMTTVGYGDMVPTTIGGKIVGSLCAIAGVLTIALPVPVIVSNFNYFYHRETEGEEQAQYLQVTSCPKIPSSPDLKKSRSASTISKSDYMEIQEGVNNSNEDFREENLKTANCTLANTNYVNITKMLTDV
For a further data set, the target named is hCav1.2 (ICa) (human) (UniProt Q13936). Kind of data set: cell-based or functional assay.
For a further data set, the target named is hNav1.5 (INa) (human) (UniProt Q14524). In words: cell-based or functional assay.
For data set [8], the target named is T4, hKv1.4 (Homo sapiens, UniProt P22459). Kind of data set: cell-based or functional assay.
T4 sequence (P22459 whole entry): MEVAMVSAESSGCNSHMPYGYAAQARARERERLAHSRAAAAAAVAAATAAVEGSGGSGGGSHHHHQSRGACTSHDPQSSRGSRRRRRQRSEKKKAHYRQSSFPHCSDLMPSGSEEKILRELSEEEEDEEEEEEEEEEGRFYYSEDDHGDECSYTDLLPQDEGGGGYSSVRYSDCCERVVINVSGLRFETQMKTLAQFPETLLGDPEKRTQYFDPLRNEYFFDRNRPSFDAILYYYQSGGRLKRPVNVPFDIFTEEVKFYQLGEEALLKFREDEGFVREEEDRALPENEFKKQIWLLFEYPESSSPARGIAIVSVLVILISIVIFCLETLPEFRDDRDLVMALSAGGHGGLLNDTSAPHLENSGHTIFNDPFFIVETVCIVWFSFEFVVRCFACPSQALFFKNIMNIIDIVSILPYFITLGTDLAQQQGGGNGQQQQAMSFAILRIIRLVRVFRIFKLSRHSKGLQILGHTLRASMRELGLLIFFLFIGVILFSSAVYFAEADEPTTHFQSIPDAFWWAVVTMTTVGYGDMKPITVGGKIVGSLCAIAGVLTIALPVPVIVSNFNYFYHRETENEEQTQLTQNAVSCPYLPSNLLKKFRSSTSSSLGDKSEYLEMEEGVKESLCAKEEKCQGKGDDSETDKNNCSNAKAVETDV
The target of the next data set is BKCa (human) (UniProt Q12791). In words: cell-based or functional assay.
In a further data set the target is hERG (IKr) (human) (UniProt Q12809). Kind of data set: cell-based or functional assay.
Chain of hERG (IKr) (human) (Q12809 whole entry): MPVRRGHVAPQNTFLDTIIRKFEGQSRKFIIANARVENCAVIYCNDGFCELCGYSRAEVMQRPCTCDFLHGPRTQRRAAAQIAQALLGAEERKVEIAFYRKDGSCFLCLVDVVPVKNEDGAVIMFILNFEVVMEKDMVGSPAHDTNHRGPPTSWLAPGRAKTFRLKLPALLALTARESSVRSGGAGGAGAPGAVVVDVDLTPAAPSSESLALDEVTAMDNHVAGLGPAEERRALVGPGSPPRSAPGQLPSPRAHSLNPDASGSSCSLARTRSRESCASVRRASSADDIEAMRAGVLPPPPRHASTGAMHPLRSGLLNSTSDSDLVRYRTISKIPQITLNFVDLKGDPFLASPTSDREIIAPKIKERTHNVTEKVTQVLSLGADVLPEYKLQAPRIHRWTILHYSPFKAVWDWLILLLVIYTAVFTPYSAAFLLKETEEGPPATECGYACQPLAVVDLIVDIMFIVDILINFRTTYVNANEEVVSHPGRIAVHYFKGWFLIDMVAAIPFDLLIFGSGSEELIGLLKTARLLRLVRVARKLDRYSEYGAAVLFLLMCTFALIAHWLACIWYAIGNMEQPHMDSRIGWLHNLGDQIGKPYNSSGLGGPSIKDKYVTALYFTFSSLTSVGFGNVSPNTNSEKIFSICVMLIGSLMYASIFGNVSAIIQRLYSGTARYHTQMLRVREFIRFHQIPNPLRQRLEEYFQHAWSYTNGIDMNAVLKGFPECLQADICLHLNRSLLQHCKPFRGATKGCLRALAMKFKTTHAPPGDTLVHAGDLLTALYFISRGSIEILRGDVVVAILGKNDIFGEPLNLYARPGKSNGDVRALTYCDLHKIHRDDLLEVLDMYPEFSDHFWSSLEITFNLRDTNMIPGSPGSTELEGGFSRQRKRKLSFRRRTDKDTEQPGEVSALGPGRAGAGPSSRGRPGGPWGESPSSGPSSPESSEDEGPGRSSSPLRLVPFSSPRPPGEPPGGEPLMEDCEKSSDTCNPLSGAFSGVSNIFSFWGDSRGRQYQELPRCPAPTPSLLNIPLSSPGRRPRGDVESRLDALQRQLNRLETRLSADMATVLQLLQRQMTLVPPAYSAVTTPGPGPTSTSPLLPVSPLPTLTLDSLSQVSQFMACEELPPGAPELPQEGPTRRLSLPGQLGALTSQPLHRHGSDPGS
In data set [9] the target is T5, hKv1.5 (Homo sapiens, UniProt P22460). In words: cell-based or functional assay.
T5 sequence (P22460 whole entry): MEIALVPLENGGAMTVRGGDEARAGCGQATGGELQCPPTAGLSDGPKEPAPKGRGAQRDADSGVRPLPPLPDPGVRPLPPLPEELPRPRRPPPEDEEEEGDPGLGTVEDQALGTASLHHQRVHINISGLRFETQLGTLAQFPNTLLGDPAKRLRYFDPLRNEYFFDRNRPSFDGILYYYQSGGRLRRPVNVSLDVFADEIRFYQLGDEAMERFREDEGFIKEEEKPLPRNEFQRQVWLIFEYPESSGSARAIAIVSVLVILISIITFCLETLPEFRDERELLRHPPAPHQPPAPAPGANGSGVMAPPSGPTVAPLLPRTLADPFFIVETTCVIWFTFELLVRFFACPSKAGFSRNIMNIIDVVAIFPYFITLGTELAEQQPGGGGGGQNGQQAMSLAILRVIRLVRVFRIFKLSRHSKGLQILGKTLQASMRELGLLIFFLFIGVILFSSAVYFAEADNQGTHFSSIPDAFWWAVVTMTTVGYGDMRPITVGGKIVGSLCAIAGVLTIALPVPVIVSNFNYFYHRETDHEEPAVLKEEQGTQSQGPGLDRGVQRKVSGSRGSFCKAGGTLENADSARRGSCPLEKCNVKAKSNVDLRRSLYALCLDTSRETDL
In a further data set the target is hKv4.3 (Ito) (human) (UniProt Q9UK17). In words: cell-based or functional assay.
Data set [10] deals with cynomolgus monkey T cell Kv1.3 (cynomolgus monkey). Kind of data set: cell-based or functional assay.
Data set [11] deals with T6, hKv1.6 (Homo sapiens, UniProt P17658). Kind of data set: cell-based or functional assay.
T6 sequence (P17658 whole entry): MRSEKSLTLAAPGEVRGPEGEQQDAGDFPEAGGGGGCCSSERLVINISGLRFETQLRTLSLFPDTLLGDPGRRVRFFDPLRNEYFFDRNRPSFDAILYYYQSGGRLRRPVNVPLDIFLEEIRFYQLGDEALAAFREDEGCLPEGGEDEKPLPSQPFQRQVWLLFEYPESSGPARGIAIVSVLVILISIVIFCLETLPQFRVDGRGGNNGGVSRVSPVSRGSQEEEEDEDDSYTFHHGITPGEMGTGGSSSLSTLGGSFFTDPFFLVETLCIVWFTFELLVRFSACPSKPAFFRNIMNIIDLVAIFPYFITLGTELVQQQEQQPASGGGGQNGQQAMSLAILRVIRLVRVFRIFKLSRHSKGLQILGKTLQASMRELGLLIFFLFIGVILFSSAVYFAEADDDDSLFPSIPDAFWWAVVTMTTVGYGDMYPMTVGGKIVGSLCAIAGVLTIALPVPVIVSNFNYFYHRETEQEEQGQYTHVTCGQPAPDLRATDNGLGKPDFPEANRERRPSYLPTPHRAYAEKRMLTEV
Data set [12] deals with IFN-g secretion from T cells in human whole blood. Format: cell-based.
Data set [13] concerns the target T7, hKv1.3 (Homo sapiens, UniProt P22001). Kind of data set: cell-based. The class given is cell-based.
For data set [14], the system named is IL-2 secretion from T cells in human whole blood. The class given is cell-based.
The target of data set [15] is T7, hKv1.3. In words: cell-based.
The test system of data set [16] is rat T effector memory cell line, PAS. Format: cell-based. The settings on record: read-out: IC50 inhibition of myelin-specific proliferation of PAS T cells.
For data set [17], the target named is T5, hKv1.5. The note with it: read-out: Kv1.5 IC50; PatchXpress.
In data set [18] the target is T2, human Kv1.3. Format: cell-based. The note with it: read-out: Kv1.3 IC50, whole cell patch clamp. (In general: The patch-clamp technique gives a direct electrical read-out from membranes.)
The target of data set [19] is T1, hKv1.7. The class given is cell-based. The settings on record: PatchXpress; read-out: Kv1.7 IC50. The protocol:
(§1) Kv1.1, Kv1.2, Kv1.3, Kv1.4, Kv1.6 and Kv1.7, PatchXpress®, planar patch-clamp electrophysiology. Ion channel currents were recorded at room temperature using PatchXpress® 7000A electrophysiology system from MDC using methods and cells described in Example 1 above.

In data set [20] the target is T3, hKv1.2. Format: cell-based. The settings on record: PatchXpress; read-out: Kv1.2 IC50. As for the experimental part: as §1
The target of data set [21] is T4, hKv1.4. The class given is cell-based. The settings on record: PatchXpress; read-out: Kv1.4 IC50. The protocol:
as §1

The target in data set [22] is T6, hKv1.6. The class given is cell-based. The note with it: PatchXpress; read-out: Kv1.6 IC50. As for the experimental part:
as §1

The format of data set [23] is in vivo, rat. From the text: Single subcutaneous doses were delivered to animals and serum was collected at various time points after injection. Studies in rats, dogs (beagles), and cynomolgus monkeys involved two to three animals per dose group, with blood and serum collection occurring at various time points over the course of the study. Male Sprague-Dawley (SD) rats (about 0.3 kg), male beagles (about 10 kg) and male cynomolgus monkeys (about 4 kg) were used in the studies described herein (n=3 animals per dose group). Approximately 5 male CD-1 mice were used per dose and time point in our mouse pharmacokinetic studies. Serum samples were stored frozen at −80° C., until analysis in an enzyme-linked immunosorbent assay (ELISA).
Single subcutaneous doses were delivered to animals and serum was collected at various time points after injection. Three animals were used per dose group, with blood and serum collection occurring at various time points over the course of the study. Serum samples were stored frozen at −80° C., until analysis in an enzyme-linked immunosorbent assay (ELISA). […] A brief description of these ELISA protocols is provided: […]

The format of data set [24] is in vivo, rat. The settings on record: male SD rats, single SC dose. As for the experimental part: Hypoactivity and lateral recumbence were also observed at 0.4 mg/kg. […] The severity of swelling was not dose dependent, and all clinical observations noted in all groups that survived to their scheduled euthanasia resolved by approximately 24 hours postdose. […] Other changes noted at lower doses were limited to decreased lymphocytes and triglycerides at 0.4 mg/kg.
All clinical signs were resolved by day 11. […] Hematologic effects in animals given ≧0.5 mg/kg/day were consistent with increased red cell turnover, and correlated with increased spleen weights, and increased splenic hemopoiesis.
Exposures increased with increasing dose up to 2.5 mg/kg, but exposures were similar in rats given 2.5 and 5.0 mg/kg. […] There was a decrease in body weight and body weight gain noted in the 2.5 and 5.0 mg/kg/dose groups. […] Urine chemistry values were increased in a few animals/group at 0.5 or 2.0 mg/kg/day, but these changes were inconsistent among and within animals, and considered unlikely to be related to treatment. There were no test article-related effects on biomarkers of renal injury (beta-2 microglobulin, calbindin, clusterin, cystatin C, glutathione S-transferase alpha, kidney injury molecule-1, neutrophil gelatinase-associated lipocalin, osteopontin, tissue inhibitor of metalloproteinase-1, and vascular endothelial growth factor). […]

Where [25] appears, read: Sprague-Dawley rats, single SC 6 mg/kg.

Like-named read-outs stand apart in the source and are kept apart here. A value given as a limit tells only on which side of the number the result lay.

T7 sequence (P22001 whole entry): as the sequence (P22001 whole entry) above
T1 sequence (Q96RP8 whole entry): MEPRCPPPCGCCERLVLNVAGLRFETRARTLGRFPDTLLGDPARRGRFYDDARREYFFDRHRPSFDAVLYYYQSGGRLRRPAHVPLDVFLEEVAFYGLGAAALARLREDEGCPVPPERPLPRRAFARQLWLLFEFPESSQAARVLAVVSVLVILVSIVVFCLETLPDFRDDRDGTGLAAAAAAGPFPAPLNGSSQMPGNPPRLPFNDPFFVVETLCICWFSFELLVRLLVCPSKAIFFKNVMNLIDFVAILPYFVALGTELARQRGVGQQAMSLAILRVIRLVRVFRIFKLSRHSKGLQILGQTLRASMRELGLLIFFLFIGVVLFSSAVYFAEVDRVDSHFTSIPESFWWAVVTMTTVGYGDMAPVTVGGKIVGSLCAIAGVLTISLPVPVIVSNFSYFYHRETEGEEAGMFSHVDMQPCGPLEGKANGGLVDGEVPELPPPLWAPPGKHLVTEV
Chain of human Kv1.1 (Q09470 whole entry): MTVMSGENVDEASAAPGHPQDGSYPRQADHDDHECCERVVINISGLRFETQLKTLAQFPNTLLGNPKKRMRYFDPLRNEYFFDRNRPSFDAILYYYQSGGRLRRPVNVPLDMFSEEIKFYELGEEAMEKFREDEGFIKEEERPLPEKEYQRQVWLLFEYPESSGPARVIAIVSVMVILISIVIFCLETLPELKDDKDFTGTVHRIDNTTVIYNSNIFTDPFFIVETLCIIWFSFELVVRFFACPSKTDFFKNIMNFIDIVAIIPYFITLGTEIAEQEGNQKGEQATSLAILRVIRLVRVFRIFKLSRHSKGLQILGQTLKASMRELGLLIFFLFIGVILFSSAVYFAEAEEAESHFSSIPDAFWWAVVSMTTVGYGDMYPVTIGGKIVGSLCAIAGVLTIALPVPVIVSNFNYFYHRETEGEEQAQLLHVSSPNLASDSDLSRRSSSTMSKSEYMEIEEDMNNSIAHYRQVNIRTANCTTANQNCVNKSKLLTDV

On to 20 kDa PEG-[Lys16]ShK (peptide), for which the % Inhibition in data set [1] stood at 71%. The % Inhibition in [2] amounted to 101%. The compound further registered an IC50 in [3] of 10000 nM. In data set [4], this compound came in with an IC50 of 1700 nM. Besides, the Kv1.7 IC50 with hKv1.7 [5] was > 10000 nM. Besides, in the data set with human Kv1.3 [6], the IFNγ production in human whole blood IC50 was found to be 0.24 nM, the IL-2 production in human whole blood IC50 came to 0.109 nM, the Kv1.3 (IWQ) IC50 amounted to 0.665 nM and the WB (IFNg) IC50 came out at 0.215 nM. Further, in the data set with human Kv1.3 [6], the WB (IL-2) IC50 was 0.104 nM and the whole blood IL-2 secretion IC95 worked out at 1.01 nM. Further, the Kv1.1 (IWQ) IC50 with human Kv1.1 is 1080 nM. The compound also displayed a Kv1.2 IC50 with hKv1.2 [7] of 639 nM. The Cav1.2 (ICa) IC50 with hCav1.2 (ICa) (human) is > 30000 nM. In addition, in the data set with hNav1.5 (INa) (human), the Nav1.5 (INa) IC50 was > 30000 nM. Moreover, in the data set with hKv1.4 [8], the Kv1.4 IC50 is > 10000 nM. Besides, in the data set with BKCa (human), the BKCa IC50 was > 10000 nM. In addition, the hERG (IKr) IC50 with hERG (IKr) (human) is > 10000 nM. For the same compound, the Kv1.5 IC50 in the data set with hKv1.5 [9] is > 30000 nM. Further, in the data set with hKv4.3 (Ito) (human), the Kv4.3 (Ito) IC50 is > 30000 nM. In data set [10], this compound displayed a cyno whole blood PD assay, IL-4 response IC50 of 0.17 nM and a cyno whole blood PD assay, IL-17 response IC50 of 0.09 nM. This compound also showed a Kv1.6 IC50 with hKv1.6 [11] of 466 nM.
For `CC[C@H](C)[C@@H]1NC(=O)[C@@H](NC(=O)[C@H](CO)NC(=O)[C@@H](N)CCCNC(=N)N)CSSC[C@@H](C(=O)N[C@@H](C)C(=O)O)NC(=O)[C@H]([C@@H](C)O)NC(=O)CNC(=O)[C@@H]2CSSC[C@@H]3NC(=O)[C@H](CCCCN)NC(=O)[C@H](Cc4ccccc4)NC(=O)[C@H](C)NC(=O)[C@H]([C@@H](C)O)NC(=O)[C@H](CSSC[C@H](NC(=O)[C@H](Cc4ccccc4)NC(=O)[C@H](CO)NC(=O)[C@H](CC(C)C)NC(=O)[C@H](CCCNC(=N)N)NC(=O)[C@H](Cc4ccc(O)cc4)NC(=O)[C@H](CCCCN)NC(=O)[C@H](CCSC)NC(=O)[C@H](CO)NC(=O)[C@H](Cc4c[nH]cn4)NC(=O)[C@H](CCCCN)NC3=O)C(=O)N[C@@H](CCCNC(=N)N)C(=O)N[C@@H](CCCCN)C(=O)N[C@@H]([C@@H](C)O)C(=O)N2)NC(=O)[C@H](CCCNC(=N)N)NC(=O)[C@H](CO)NC(=O)[C@H](CCCCN)NC(=O)[C@@H]2CCCN2C(=O)[C@H]([C@@H](C)CC)NC(=O)[C@H]([C@@H](C)O)NC(=O)[C@H](CC(=O)O)NC1=O` [[Lys16]ShK-Ala], the IC50 in data set [12] (read-out: WB (IFNg) IC50) came out at 0.266 nM; in data set [12] (read-out: WB (IFNg) IC50 (nM, Avg)) it was 0.266 nM; on hKv1.3 [13] (Kv1.3 (IWQ) IC50 (nM, Avg)), 9.5 nM; in data set [14] (read-out: IC50 blocking IL-2 secretion from human whole blood), 0.138 nM; in data set [14] (read-out: WB (IL-2) IC50) it was 0.138 nM; in data set [14] (read-out: WB (IL-2) IC50 (nM, Avg)) it was 0.138 nM. Moreover, at hKv1.3 [15], the IC50 was determined as 0.06 nM.
“Monovalent aKLH HC-ShK(1-35 Q16K) Ab: anti-KLH IgG2 antibody with [Lys16]ShK fused to the C-terminus of one heavy chain”: the IC50 in data set [12] (read-out: WB (IFNg) IC50) was 0.657 nM; in [16], 0.839 nM; in the data set with hKv1.5 [17], > 10000 nM; with human Kv1.3 [18], 0.354 nM; in data set [14] (read-out: WB (IL-2) IC50), 0.292 nM; in the data set with hKv1.7 [19] it was > 10000 nM. Further, the IC50 in the data set with hKv1.2 [20] is 7970 nM; with hKv1.4 [21], > 10000 nM; in the data set with hKv1.6 [22] it was > 616 nM. For the same compound, the “Exposure (AUC0-inf) normalized for MW, times greater than ShK-L5” value in data set [23] (150 kDa//4 kDa) is listed as “about 163 times”. In [23] (setting [25]), this compound registered an AUC0-t of 481 ± 157 µg·h/mL. Further, the Cmax in [23] (setting [25]) was found to be 5890 ± 1770 ng/mL. The HL in data set [23] (setting [25]) came out at 32 ± 13.9 h. The Tmax in [23] (setting [25]) came to 32 ± 13.9 h.
In the case of “PEG-[1-Nal 16]ShK: PEG conjugate of the 1-Nal16 analog of ShK, relatively Kv1.3-inactive (RSCIDTIPKSRCTAFXCKHSMKYRLSFCRKTCGTC; PEG; ShK PEGylated toxin peptide analog; PEGylated; 3-(1-naphthyl)alanine)”, the “Molar AUC exposure compared with PEG-[Lys16]ShK and anti-KLH Ab-[Lys16]ShK” value in [24] is 6-8 ×. The “Times less activity of the PEG conjugate than of the free peptide (Kv1.3)” value with hKv1.3 [13] is on record as “about 57 times”.
